Assay results from patent publication US20160208003A1 (AFFITECH RESEARCH, published 2016).
Changes are numbered by the printed parent chain. Values joined by “and” are separate entries in the source; they are usually repeats but may differ in a detail not shown here. Equal entries are not always repeated. Values belong to the binder of their own block, whether it stands above or below them.

How the values were obtained:
[1] = biological target: T1, human CC chemokine receptor 4 (CCR4) (human, UniProt P51679 1-360); assay: flow cytometry competition on CCRF-CEM cells; IgG titrated, competitor biotinylated TARC (ca. 20 nM)
T1 construct: whole, on cells; Always presented on cells; also called CD194; human CCR4
T1 sequence (looked up): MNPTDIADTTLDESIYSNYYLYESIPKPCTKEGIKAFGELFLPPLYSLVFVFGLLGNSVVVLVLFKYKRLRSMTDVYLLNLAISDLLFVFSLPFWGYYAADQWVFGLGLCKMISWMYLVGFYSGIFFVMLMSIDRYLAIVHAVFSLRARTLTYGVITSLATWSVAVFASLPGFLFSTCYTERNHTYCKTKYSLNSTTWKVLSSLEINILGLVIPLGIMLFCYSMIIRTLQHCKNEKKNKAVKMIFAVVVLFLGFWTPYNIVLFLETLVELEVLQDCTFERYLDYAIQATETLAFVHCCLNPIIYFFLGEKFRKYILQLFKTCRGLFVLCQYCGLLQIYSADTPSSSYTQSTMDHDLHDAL
Procedure: The competition binding assays were performed with biotinylated MDC or biotinylated TARC on DT-40-CCR4+ and CCRF-CEM cells. DT40 and CCRF-CEM cells were cultured as described in Example 2. TARC and MDC were biotinylated using standard procedures. The biotinylation process causes some losses, so the concentrations of biotinylated MDC and TARC recited herein are approximate.
The cells were harvested from culture flasks, washed 2 times with PBS (400×g, 5 min, 4° C.) and resuspended in PBS containing 0.2% BSA and 0.09% NaN3. 1×10^5 cells per well were aliquoted into V-shaped 96-well plates (Greiner Bio-One, Frikenhausen, Germany). Cells were centrifuged (400×g, 5 min, 4° C.) and resuspended in 50 μl IgG, single chain or unlabeled ligand (1:10 dilution series starting on 100/500/26, 4 μg/ml) mixed with a fixed concentration of biotinylated ligand (10 or 20 nM, see legend to FIG. 24). The cells were incubated for 2 hours at 4° C. and mixed with a pipette every 45 min. The cells were washed three times with 150 μl PBS with 0.2% BSA and 0.09% NaN3 and stained with 3 μg/ml streptavidin PE (BD Biosciences) for 45 minutes at 4° C. […] Apparent binding affinities (KD) were calculated according to the following equation derived from previously described methods (Kipriyanov et al, 1997b; Schodin & Kranz, 1993): […]

[2] = biological target: T1, human CC chemokine receptor 4 (CCR4); assay: cell-based or functional assay
[3] = biological target: T1, human CC chemokine receptor 4 (CCR4); assay: flow cytometry, IgG titration on CCR4+ DT40 cells (2); one site-specific binding fit (Prism)
Procedure: The IgG forms of antibodies 17G, 9E and KM3060var using various CCR4⁺ cell types were used (see Example 2).
For the flow cytometry experiments, the cells were harvested from the culture flasks, washed 2 times with PBS, re-suspended in PBS with 0.2% BSA and 0.09% NaN₃ and finally aliquoted 1×10⁵ cells per well into V-shaped 96-well plates (Greiner Bio-One, Frickenhausen, Germany). Cells were centrifuged at 400×g for 5 min and then incubated at 4° C. for 45 min with different antibody dilutions.
After washing with PBS with 0.2% BSA and 0.09% NaN₃, the cells were stained with 10 μg/ml of RPE-conjugated goat anti-human IgG (AbDSerotec, Düsseldorf, Germany) for 30 minutes at 4° C. The stained cells were washed, re-suspended in 200 μl PBS with 0.2% BSA and 0.09% NaN₃ and transferred to a U-shaped 96-well plate (Corning, Schiphol-Rijk, The Netherlands) for acquisition on EasyCyte flow cytometer (Guava Technologies, Hayward, Calif., USA).

IC50 [1]: 4.26 nM and 4.57 nM
B1: 9E10J IgG (full length human IgG1, lambda) (antibody, V domains shown)
VH: QVQLVQSGAEVKKPGSSVKVSCKASGGTFSSYAISWVRQAPGQGLEWMGGIIPIFGTANYAQKFQGRVTMTRDTSTSTVYMELSSLRSEDTAVYYCARRGGSYFDYWGQGTLVTVSS
VL: SYVLTQPPSASGTPGQSVTISCSGSTSNIGSHYVFWYQQLPGTAPRLLIYRNHQRPSGVPDRLSGSKSGTSASLAISGLRSEDEADYYCAVWDDTLSGWVFGGGTKLTVLG
notes: also called IgG 9E10J; unmodified 9E10J

ADCC of CCRF-CEM cells with human PBMCs, EC50 [2]: 0.046 µg/mL
Ca++ flux in CCRF-CEM cells: signal response to MDC stimulation (% of MDC in the absence of IgGs), IgG 10 µg/mL [2]: 64%
Ca++ flux in CCRF-CEM cells: signal response to TARC stimulation (% of TARC alone), IgG 10 µg/mL [2]: 3%
Kd [3]: 0.17 nM
B2: 9E IgG (full length human IgG1, lambda) (antibody, V domains shown)
VH: B1 VH with S31N, M70I, R72A, T74E, V79A
VL: B1 VL
notes: also called IgG 9E; IgG1 9E
